Assay results published in patent US20080145840A1.

Legend:
C[C@H](N)C(=O)O = test: purified protein, by the assay type
[1] = tested on: Nc1ncnc2c1ncn2[C@@H]1O[C@H](COP(=O)(O)OP(=O)(O)OP(=O)(O)O)[C@@H](O)[C@H]1O; test: purified protein, by the assay type

E. coli MurC (Escherichia coli K-12) gave a Km (C[C@H](N)C(=O)O; other: ITC, pH 8.0) of 44 µM, a Km (C[C@H](N)C(=O)O; other: Phosphate detection) of 56 µM and a Km ([1]; other: ITC, pH 8.0) of 61 µM. The Km ([1]; other: Phosphate detection) was 101 µM.
